# Test results reported in patent US20190105403A1 (STCUBE, published 2019).
# T1: human PD-L1 4NQ (N35Q/N192Q/N200Q/N219Q), fully unglycosylated variant, expressed on BT549 cells (human, UniProt Q9NZQ7 19-290)
# T1 construct: In the Western blots the protein was in cell lysate; also called 4NQ PD-L1; unglycosylated PD-L1 4NQ mutant
# T1 chain: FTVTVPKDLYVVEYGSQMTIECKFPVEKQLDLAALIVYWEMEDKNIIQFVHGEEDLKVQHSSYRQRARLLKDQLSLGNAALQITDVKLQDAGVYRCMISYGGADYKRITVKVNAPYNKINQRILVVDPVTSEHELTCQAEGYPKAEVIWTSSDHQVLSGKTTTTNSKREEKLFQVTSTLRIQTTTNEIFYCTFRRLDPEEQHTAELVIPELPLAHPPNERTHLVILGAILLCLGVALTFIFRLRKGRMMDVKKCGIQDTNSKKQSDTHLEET
# B1: STM073 MAb (antibody, V domains shown)
# VH: EVQLVESGGALVKPGGSLKLSCAASGFTFSNSAMSWVRQTPEKRLEWVATISSAGSYTYYPDSVKGRFTISRDNAKNTLYLQMSSLRSEDTALYYCTRHYDYYFDYWGQGATLTVSS
# VL: QIVLTQSPAIMSASPGEKVTLTCSASSSVSYMHWYQQKPGSSPRLVIYDTSNLASGVPVRFSGSGSGTSYSLTVSRMEAEDAATYYCQQWSDHPLTFGAGTKLELK
# B2: STM108 MAb (antibody, V domains shown)
# VH: EVMLVESGGALVKPGGSLKLSCAASGFSLSNYVMSWVRQTPEKRLEWVATISSGGRYIYYTDSVKGRFTISRDNARNTLYLQMSSLRSEDTAMYYCARDGSTLYYFDYWGQGTTLTVSS
# VL: QTVLTQSPAIMSASPGEKVTMTCSASSSVDYMYWYQQKPGSSPRLLIYDTSNLASGVPVRFSGSGSGTSYSLTISRMEAEDAATYYCQQWSSSPPITFGTGTKVELK
# B3: STM115 MAb (antibody, V domains shown)
# VH: EVMLVESGGALVEPGGSLKLSCVASGFTFSNYAMSWVRQTPERRLEWVASITNGGTYTYYPDSVKGRFTISRDNARNTLYLQMSSLRSEDTAMYFCARPLHYYGGSHFDYWGQGTTLTVSS
# VL: EIVLTQSPALMAASPGEKVTITCSVSSSISSNTLHWYQQKSEISPKPWIYGTSNLASGVPVRFSGSGSGTSYSLTISSMEAEDAATYYCQQWSSYPLTFGGGTKLEIK
# B4: STM004 MAb (antibody, V domains shown)
# VH: QVQLQQSDAELVKPGASVKISCKASGYTFSDHAIHWVKQRPEQGLEWIGCISPGSGDITYNEKFKGKATLTADKSSSTAYMQLNSLTSEDSAVYFCKRWGLDYWGQGTTLTVSS
# VL: DIVLTQSPASLAVSLGQRATISCRASESVEFYGTTLMQWYQQKPGQPPRLLIYAASNVESGVPARFSGSGSGTDFSLNIHPVEDDDIAMYFCQQSRKVPYTFGGGTKLEIK
# Molecular target: T2, human PD-L1 wild type (glycosylated), expressed on cells (human, UniProt Q9NZQ7 19-290, N-glycosylated at N35, N192, N200 and N219)
# T2 construct: Endogenous on NCI-H226, A431 and MDA-MB231 cells and transfected into 4T1 cells in the functional assays; In the Western blots the protein was in cell lysate; also called PD-L1 WT; WT PD-L1
# T2 sequence (Q9NZQ7 19-290): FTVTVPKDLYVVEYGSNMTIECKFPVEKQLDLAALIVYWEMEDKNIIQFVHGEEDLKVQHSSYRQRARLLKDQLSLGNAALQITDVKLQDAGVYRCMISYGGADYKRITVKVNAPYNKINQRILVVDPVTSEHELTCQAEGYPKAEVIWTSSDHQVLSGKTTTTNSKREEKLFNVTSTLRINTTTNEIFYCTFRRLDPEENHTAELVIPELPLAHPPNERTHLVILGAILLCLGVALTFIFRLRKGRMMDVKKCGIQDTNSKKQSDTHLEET
# Test: flow cytometry on BT549 cells overexpressing PD-L1 WT (biotin labeled, mixed with 4NQ cells), FITC secondary antibody
row,MFI,Binder
1,63.9,B1
2,117,B2
3,51.1,B3
4,42.5,B4

# Molecular target: T1, human PD-L1 4NQ …
# Test: flow cytometry on BT549 cells overexpressing PD-L1 4NQ (mixed with WT cells), FITC secondary antibody
row,MFI,Binder
1,12.2,B1
2,27.6,B2
3,21.3,B3
4,8.7,B4
